The results in this text go back to the DeepSol protein solubility set.

The nature of the data set: soluble on expression in E. coli; label from the status in PepcDB or PDB records.
In the case of “MGSDKIHHHHHHMKVALRKTIGERLLELAKQDEKIVVVTSDARGSAAIADFFKVFPERSIEVGIAEQTAAGVAAGLALCGKKAWVFGPACFYSARNLEQIKNDIAYSDANVKIVAVSGGVSYGPLGSTHHALHDVAVMRAIPNLKVLLPSDAVLAAAILEQLLKDEKPVYMRTGRNPVPVIYSRDEKFEVGRAITLKEGNDITIIATGEVVWRALEAAKILEKEGISARVIDMFTVKPLDEEAVFRAARETGRIVTVEEHSIFGGLGGAVAEFLSQNLPTPMKILGIPDEYPVTGTQDEVLKHYGLAPEGIAKTVLEWFKEGN”, the “soluble on expression in E. coli” value is given as “not soluble”.

Take “MGSDKIHHHHHHMMNNIGLILFDIDGVIRDVTNSYRLAIQETVNFFSGWRPSIEDIDSIKSEGCWNNDWDLSLEMINRHVQKNNLSFSAPSRKILIECFENFYFGGDPNHDSSEWSGFIKDETLLVKKTFFEELTQRRIGWGFVSGAELPSAKFVLEQRLGLASAPLIAMGEAPEKPDPTGFISLSSKLSKKPLGFSNPPIAYIGDTVADVKTVINARIKIPDQKFISLAIAPPHLHVDSSREKRLRYEAELKKAGADLIIKSMDNLKNETLNLFINQ”: the “soluble on expression in E. coli” value is “not soluble”.

For “MGSDKIHHHHHHMKHGGFSAASEAENISKSKLSRRIIDLENKFNVSLIQRTTRHFKVTDLGQEFYEECCKVIAQVECAENVLLKQKSEPQGLVKVSCPPLMMHFQIRKILNQFLKTYPKVEISLELTSRRVDILHDDIDLAIRTNFEPNEDSNLIVRDVIKTDHCLVASPELLQGRTIKHYSELQDFPSISLGTQKQNYIWHLCNIRNGESVDVPYQPRIKSNDLAGVYYAVMDGLGIADLPFLTVESEIRKGTLVHILPDWKSNIGMLQLVYVSRKGQRLVVEKLIETLIDELRRLPESHEGYLPT”, the “soluble on expression in E. coli” value was “not soluble”.

For the sequence “QSALTQPASVSGSPGQSITISCTGTSSDVGGYNYVSWYQQHPGKAPKLMIYGVTNRPSGVSNRFSGSKSGNTASLTISGLQAGDEADYYCSSYTSTRTPYVFGTGTKVEIKRTVAAPSVFIFPPSDEQLKSGTASVVCLLNNFYPREAKVQWKVDNALQSGNSQESVTEQDSKDSTYSLSSTLTLSKADYEKHKVYACEVTHQGLSSPVTKSFNRGEC”, the “soluble on expression in E. coli” value is recorded as “soluble”.

“GSRPGPASQLPRFVRVNTLKTCSDDVVDYFKRQGFSYQGRASSLDDLRALKGKHFLLDPLMPELLVFPAQTDLHEHPLYRAGHLILQDRASCLPAMLLDPPPGSHVIDACAAPGNKTSHLAALLKNQGKIFAFDLDAKRLASMATLLARAGVSCCELAEEDFLAVSPSDPRYHEVHYILLDPSCSGSGMPSRQLEEPGAGTPSPVRLHALAGFQQRALCHALTFPSLQRLVYSTCSLCQEENEDVVRDALQQNPGAFRLAPALPAWPHRGLSTFPGAEHCLRASPETTLSSGFFVAVIERVEVPRRARG”: the “soluble on expression in E. coli” value is “soluble”.

For “MKFYTILSILFISFMLSACAVLQKSSPLQENKDFYILDTHTQKKISFEDMILELLKADVILLGEKHDEVKHKISQVMIFNALEGNLSSQNINFDVALEMLASTEQNHLDKAFKNKKTIKANELTNALNWDKVWKWKDYEQFVNVVFYSKSKILGANLSRSEITSIYNGAQPLKGYVSTTNEVKKQLFDIISLSHKLNPEENKELLDKLVEIQQFKDRRMADVLVHHVNKVLLLAGSYHTSKKIGIPLHIQDFKSSKKIVVVNLSYGEIDLKDSDYVLIYKGEE”, the “soluble on expression in E. coli” value is recorded as “not soluble”.

In the case of “SGILFMSKVGLRGDRRSEGDEVLDPLRQALDSSMQSHNLYQHPQHLAFHVSAPVASTVQQASGLLGPLPHLSSFALQPAHSLLPPLGSHGAGFQENGAKAES”, the “soluble on expression in E. coli” value was “soluble”.

“MGKPVVAIVGRPNVGKSTIFNRIAGERISIVEDTPGVTRDRIYSSAEWLNYDFNLIDTGGIDIGDEPFLAQIRQQAEIAMDEADVIIFMVNGREGVTAADEEVAKILYRTKKPVVLAVNKLDNTEMRANIYDFYSLGFGEPYPISGTHGLGLGDLLDAVAEHFKNIPETKYNEEVIQFCLIGRPNVGKSSLVNAMLGEERVIVSNVAGTTRDAVDTSFTYNQQEFVIVDTAGMRKKGKVYETTEKYSVLRALKAIDRSEVVAVVLDGEEGIIEQDKRIAGYAHEAGKAVVIVVNKWDAVDKDESTMKEFEENIRDHFQFLDYAPILFMSALTKKRIHTLMPAIIKASENHSLRVQTNVLNDVIMDAVAMNPTPTHNGSRLKIYYATQVSVKPPSFVVFVNDPELMHFSYERFLENRIRDAFGFEGTPIKIFARARK”: the “soluble on expression in E. coli” value is “soluble”.

With “MQRETGSERVDVDMEKPGMISRWYDDKGFGFILPKTGGEEVFLHISAFRGDRRPRQGDQVWFLASQDAQGRLRAERARLDALTIDPPTVRRGAQAPVTRAQARPAPTPPSALQRPLA”, the “soluble on expression in E. coli” value is given as “not soluble”.

In the case of “MARIIRRPLNLTAAVRFRLSPLSPFSGNSGSINSETTSWSELIRVPSLVEGCDYKHWLVLMKPPNGYPTRNHIVQSFVETLAMALGSEEEAKRSIYSVSTKYYYAFGCRIHEPLTYKIRSLPDVKWVLPDSFIVDGDNRYGGEPFVDGEVVPYDEKYHADWLRDQTDEDAKSGVVKKKHRRKRKKKLI”, the “soluble on expression in E. coli” value is listed as “soluble”.

Take “MNPIHDRTSDYHKYLKVKQGDSDLFKLTVSDKRYIWYNPDPKERDSYECGEIVSETSDSFTFKTVDGQDRQVKKDDANQRNPIKFDGVEDMSELSYLNEPAVFHNLRVRYNQDLIYTYSGLFLVAVNPFKRIPIYTQEMVDIFKGRRRNEVAPHIFAISDVAYRSMLDDRQNQSLLITGESGAGKTENTKKVIQYLASVAGRNQANGSGVLEQQILQANPILEAFGNAKTTRNNNSSRFGKFIEIQFNNAGFISGASIQSYLLEKSRVVFQSETERNYHIFYQLLAGATAEEKKALHLAGPESFNYLNQSGCVDIKGVSDSEEFKITRQAMDIVGFSQEEQMSIFKIIAGILHLGNIKFEKGAGEGAVLKDKTALNAASTVFGVNPSVLEKALMEPRILAGRDLVAQHLNVEKSSSSRDALVKALYGRLFLWLVKKINNVLCQERKAYFIGVLDISGFEIFKVNSFEQLCINYTNEKLQQFFNHHMFKVEQEEYLKEKINWTFIDFGLDSQATIDLIDGRQPPGILALLDEQSVFPNATDNTLITKLHSHFSKKNAKYEEPRFSKTEFGVTHYAGQVMYEIQDWLEKNKDPLQQDLELCFKDSSDNVVTKLFNDPNIASRAKKGANFITVAAQYKEQLASLMATLETTNPHFVRCIIPNNKQLPAKLEDKVVLDQLRCNGVLEGIRITRKGFPNRIIYADFVKRYYLLAPNVPRDAEDSQKATDAVLKHLNIDPEQYRFGITKIFFRAGQLARIEEAREPN”: the “soluble on expression in E. coli” value is recorded as “soluble”.

Consider “MGSDKIHHHHHHMPKNRDAARASLENLYRIFTVPEAPDSTLGAIDQAIAGDVAGFLQTHIVAIERPLEEIEADFSSFSIPEEPTYVSEYTEFVKENLVAHSVHTASPAFVGHMTSALPYFMLPLARLMTALNQNVVKVETSKAFTPMERQVLAMLHHLVYGRNDDFYPQWIHNSQHALGAFCSGGTLANVTALWVARNRLFAPDGEFRGIAQEGLARALKHRGADGIAVLVSERGHYSLGKAADLLGIGRDDLIKIKTDANNRIDLKALREECRRLQDRNTLPLALVGIAGTTETGNVDPLEAMADLAQELGCHFHVDAAWGGPTLFSDRHRHLLRGIERADSVTIDGHKQLYVPMGAGMVVFKDPTALSAIEHHANYILRHGSKDLGSHTLEGSRPGKAMLVHAGFSIIGRKGYELLIDMGIERARTFADMIQRHPDFELISEPELNILTYRYCPPAIQQALTDATAQQRAAINGLLDQVCQLLQKYQREAGKTFVSRTRLHVARHDMELTVLRVVLANPLTTDEILEAVLAEQCEIVRLPEIQALLRQAEELCPGLAKAV”, for which the “soluble on expression in E. coli” value is “not soluble”.

As to “MIGNFTIVDGHVHTFSSEEVSLKVLKSFNKIYNIEFENPGTGTIEDVLNNMKNEGIDYTVMANFAPVKILHANNKWTLEEARKHPNLIPLVSFHPDMDVSFTSLLEEYISDGAKGIKLHPMAQGFDPRDERLKGLYEFCNDIAFPIVFHCGRVANARLNSFSDVETLEPLIAMYENISFVLTHMADGNVKDVLRLSRTYKNVYFDTSIVISGYPPIRETNKPSWLDDSIPEGVINEIGAHRVVFGSDYPWGSPAWDLKRFMSMKLDDEEKKNILGENAMKLFLNTAYN”, the “soluble on expression in E. coli” value is listed as “soluble”.

On to “MEWKTVVKPHTERINVKRSEFYATIFPVKDEKDFREKLKEVSKRDATHNCWAYRIFSPNGILEHSSDDGEPSGTAGRPILGALKKYDLMNTAIVVTRYFGGVKLGVRGLIEAYSSAAEMAVKGAELRKLRLMKEFEVEVDYQELNNVFRVVEMMGLELVEMDYTERGAKILLRGLEVPENLVIKTIRDVLI”, for which the “soluble on expression in E. coli” value was “soluble”.

“MSYQGRARKFLESASIDVGDMVLVEKPDVTYEGMVLDRADDADDRHIVLKLENGYNIGVEISDARIELLEKGSEPRIELPPVEAAEDPELPDVSIISTGGTVASIIDYRTGAVHPAFTADDLLRANPELLDIANIRGRAVFNILSENMKPEYWVETARAVYGEIKDGADGVVVAHGTDTMHYTSAALSFMLRTPVPVVFTGAQRSSDRPSSDASLNIQCSVRAATSEIAEVTVCMHATMDDLSCHLHRGVKVRKMHTSRRDTFRSMNALPLAEVTPDGIKILEENYRKRGSDELELSDRVEERVAFIKSYPGISPDIIKWHLDEGYRGIVIEGTGLGHCPDTLIPVIGEAHDMGVPVAMTSQCLNGRVNMNVYSTGRRLLQAGVIPCDDMLPEVAYVKMCWVLGQTDDPEMAREMMRENIAGEINERTSIAYFRG”: the “soluble on expression in E. coli” value is “soluble”.

In the case of “SENLTMNIDSTKTIQGTILPVLDFKTEKENVFTFKNTANLNLLIKHGQVINLINKLEFSTYGNKVTVSGGYVHTEYRYLLHHVFEVYPYVESQWAESRGMKYKVSTGLQSRYR”, the “soluble on expression in E. coli” value is on record as “not soluble”.

In the case of “MNALLSNPFKERLRKGEVQIGLWLSSTTAYMAEIAATSGYDWLLIDGEHAPNTIQDLYHQLQAVAPYASQPVIRPVEGSKPLIKQVLDIGAQTLLIPMVDTAEQARQVVSATRYPPYGERGVGASVARAARWGRIENYMAQVNDSLCLLVQVESKTALDNLDEILDVEGIDGVFIGPADLSASLGYPDNAGHPEVQRIIETSIRRIRAAGKAAGFLAVAPDMAQQCLAWGANFVAVGVDTMLYSDALDQRLAMFKSGKNGPRIKGSY”, the “soluble on expression in E. coli” value is “soluble”.

In the case of “MPSSSPSMDESRRSAVPPKEPAGRICTVCSDRANGYNFGVLTCESCKAFFRRNASKHKEIKCPFSDSCQITSASRKFCQACRLNKCFAVGMNSEWLNDLKPKSSIVSGKFKRKKPDMKNNLKVEVDDTEEDLENDDEEQISVPKALLEKLINKANEKSKDRCTCKCQCGFYPITQRLTAYEPKDTTAVNSPQDISFSHHLHHSDSFYSSSTSTLSPMSVISCAPSSHDSSGYNTSQLVTQSPTNYTVSPASIPSSITELSPQMPSQYPPMLSPFQFGVMAQMAAPANFLNFPPMPERTWTPIQAVSTVPVTETLPPNLLEQIHSKIDKYIGVLNEDEITLLEELHVQNEPLNAPLIQWHNPKSIDGVFRIIEEALRRIVNMACQLSLFRELHVDDRKNLLKSGFGELLIVRGLMAYDKSDNSWNHSFGVRGKMEVKVEVLKNPKLEEHYKAHMNLLSTFGEDVRNNEHLMLIFNAAVIFHPHVSNLRDSKRVHSTQAKYFQMLLKLLTFEYGKSRADIAYSNLLNQVVELHRVNRTLLRVFYGLDIAQLDPLIRELCSFE”, the “soluble on expression in E. coli” value is recorded as “not soluble”.

On to “MGSDKIHHHHHHMIGDMNELLLKSVEVLPPLPDTVSKLRKYVSEANSNIETMKVAEIISSDPLMTAKLLQLANSPYYGFTREITTINQVITLLGVGNIINIVMADSIRDNFKIDVSPYGLNTQNFLKTCNEEATFIANWLNDEDKKLSHLLVPCAMLLRLGIVIFSNFLIQNHKDKDFLAFLNKNENLALAENEFLGVDHISFLGFLLHRWNFDDVLIESICFVRTPHAAREKVKKSAYALAITDHLFAPHDGSSPFNAKAAVALLKEAKTQGINFDLNNLLSKLPNKAKENLNKED”, for which the “soluble on expression in E. coli” value is given as “soluble”.

As to “HMTPQDHEKAALIMQVLQLTADQIAMLPPEQRQSILILKEQIQKSTGAP”, the “soluble on expression in E. coli” value was “soluble”.
